Target: CENP-A (endogenous, soluble pre-assembly fraction) (human (endogenous in SW480)) (UniProt P49450)
Assay: co-IP; CENP-A IP (ACA serum) or mock IP from the soluble fraction (PBS, 0.5% NP-40) of SW480 cells treated 72 hours with control or HJURP siRNA; Western blot for the chaperones

Chain of UniProt P49450 (P49450 whole entry): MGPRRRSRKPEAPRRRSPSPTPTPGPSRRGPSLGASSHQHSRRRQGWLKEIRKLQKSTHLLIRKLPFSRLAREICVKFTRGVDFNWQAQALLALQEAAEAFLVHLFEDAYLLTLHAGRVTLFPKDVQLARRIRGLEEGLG

HIRA (endogenous) (from UniProt P54198 1-1017) (natural protein)
fold increase in the amount bound to CENP-A after HJURP knockdown against control siRNA: 2.4 fold
